{
  "source": "patent US8445662B2",
  "about": "“Mycobacterium tuberculosis fusion protein and uses thereof” (The 309th Hospital, The People's Liberation Army, priority 2006, dated 2013)",
  "conditions": "guinea pig, in vivo",
  "data": [
    {"substance": "Bovine serum albumin (BSA): positive control group in the guinea pig anaphylaxis test", "values": [
      {"measurement": "Averaged weight (g), during excitation", "value": "447.1 ± 41.4", "unit": "g"},
      {"measurement": "Averaged weight (g), sensitized upon the last injection", "value": "380.6 ± 23.6", "unit": "g"},
      {"measurement": "Reaction level + (number of guinea pigs)", "value": 0},
      {"measurement": "Reaction level ++ (number of guinea pigs)", "value": 0},
      {"measurement": "Reaction level +++ (number of guinea pigs)", "value": 3},
      {"measurement": "Reaction level ++++ (number of guinea pigs)", "value": 0},
      {"measurement": "Reaction level − (number of guinea pigs)", "value": 3}
    ]}
  ]
}
